From publication PMC5148137 (Biochemical and biophysical research communications, 2012)

Molecular target: Cul3(1–383)-(His)6 (co-expressed) (human, UniProt Q13618 1-383)
Test: AUC

Chain of Cul3(1–383)-(His)6 (co-expressed) (Q13618 1-383): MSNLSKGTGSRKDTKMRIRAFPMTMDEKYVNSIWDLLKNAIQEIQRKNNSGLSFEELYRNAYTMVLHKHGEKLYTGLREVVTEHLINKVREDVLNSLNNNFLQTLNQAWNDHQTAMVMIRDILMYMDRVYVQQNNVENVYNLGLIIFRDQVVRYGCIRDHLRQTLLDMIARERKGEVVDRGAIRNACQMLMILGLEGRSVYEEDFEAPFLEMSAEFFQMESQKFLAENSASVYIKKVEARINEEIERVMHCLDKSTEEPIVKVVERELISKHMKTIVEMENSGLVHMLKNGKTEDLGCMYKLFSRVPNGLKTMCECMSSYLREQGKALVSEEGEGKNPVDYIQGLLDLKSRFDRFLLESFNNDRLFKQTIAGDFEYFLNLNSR

B1: MBP-KBTBD13(6–132) (domain or fragment, human, UniProt C9JR72 6-132, looked up)
chain: QTLVQVWVGGQLFQADRALLVEHCGFFRGLFRSGMRETRAAEVRLGVLSAGGFRATLQVLRGDRPALAAEDELLQAVECAAFLQAPALARFLEHNLTSDNCALLCDAAAAFGLRDVFHSAALFICDG
B1 was tested, and the “stoichiometry N” value was 1.
